Data from US20220048996A1 (F STAR BETA, published 2022).

What was measured:
cCD137-mFc-Avi = biological target: T1, cCD137-mFc-Avi (cynomolgus monkey); assay: SPR, antibody captured via anti-human Fc, dimeric antigen flowed, 1:1 fit
T1 construct: 139 used; also called cyno CD137-mFc-Avi; recombinant cyno CD137
T1 chain: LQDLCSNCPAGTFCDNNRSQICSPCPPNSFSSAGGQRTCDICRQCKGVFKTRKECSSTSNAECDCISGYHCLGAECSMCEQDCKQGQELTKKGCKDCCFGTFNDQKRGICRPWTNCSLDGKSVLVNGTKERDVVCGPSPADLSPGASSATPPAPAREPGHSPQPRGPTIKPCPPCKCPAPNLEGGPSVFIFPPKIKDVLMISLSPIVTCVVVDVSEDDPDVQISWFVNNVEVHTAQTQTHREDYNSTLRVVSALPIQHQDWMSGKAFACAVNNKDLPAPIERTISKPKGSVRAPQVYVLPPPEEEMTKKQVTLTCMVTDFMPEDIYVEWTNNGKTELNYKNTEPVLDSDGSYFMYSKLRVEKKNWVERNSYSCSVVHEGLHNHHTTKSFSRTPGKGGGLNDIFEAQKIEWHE
Experimental: For CD137 affinity determination, a Biacore CM5 chip (GE Healthcare) was coated with anti-human Fc using a Human Antibody Capture Kit (GE Healthcare) according to manufacturer's conditions, to a surface density of approximately 4000 RU. […] Human or cynomolgus CD137 (hCD137-mFc-Avi or cCD137-mFc-Avi) was flowed over at a range of concentrations in a three-fold dilution series starting at 200 nM, at a flow rate of 70 μl/min. The association time was 2 min and the dissociation time was 8 min. Running buffer was HBS-EP (GE Healthcare BR100188). Flow cells were regenerated by injecting 3M magnesium chloride at a flow rate of 30 μl/min for 30 seconds.
The binding kinetics were fit with a 1:1 Langmuir model to generate binding association (kₐ) and dissociation (kd) rates. Equilibrium binding constants (KD) were calculated by dividing the dissociation rate by the association rate for each sample. Data analysis was performed with BiaEvaluation software version 3.2.

[1] = biological target: T2, cynomolgus OX40 expressed on DO11.10 cells (DO11.10-cOX40) (cynomolgus, UniProt P43489 29-277 (human entry)); assay: flow cytometry on DO11.10 cells expressing the target
T2 chain: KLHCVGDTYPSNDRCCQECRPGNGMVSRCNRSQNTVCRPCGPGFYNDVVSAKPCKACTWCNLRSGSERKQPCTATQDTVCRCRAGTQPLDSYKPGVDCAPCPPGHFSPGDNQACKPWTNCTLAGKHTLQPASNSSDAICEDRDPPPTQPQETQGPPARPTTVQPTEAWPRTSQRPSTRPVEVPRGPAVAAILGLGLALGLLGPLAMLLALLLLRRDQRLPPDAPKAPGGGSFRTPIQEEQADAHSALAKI

[2] = biological target: T3, human OX40 expressed on DO11.10 cells (DO11.10-hOX40) (human, UniProt P43489 29-277); assay: as above
T3 construct: Also used here for OX40 on primary human T cells in the functional rows; also called human OX40 receptor; OX40 on human T cells
T3 sequence: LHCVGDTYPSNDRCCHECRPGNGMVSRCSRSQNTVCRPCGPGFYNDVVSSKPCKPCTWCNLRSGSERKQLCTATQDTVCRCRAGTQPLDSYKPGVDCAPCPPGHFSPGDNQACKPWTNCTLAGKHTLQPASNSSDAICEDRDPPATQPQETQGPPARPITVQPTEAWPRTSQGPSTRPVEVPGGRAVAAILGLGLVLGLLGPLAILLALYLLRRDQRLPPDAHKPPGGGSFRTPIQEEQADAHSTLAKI

[3] = biological target: T4, cynomolgus CD137 expressed on DO11.10 cells (DO11.10-cCD137) (cynomolgus monkey, UniProt Q07011 24-255 (human entry)); assay: as above
T4 chain: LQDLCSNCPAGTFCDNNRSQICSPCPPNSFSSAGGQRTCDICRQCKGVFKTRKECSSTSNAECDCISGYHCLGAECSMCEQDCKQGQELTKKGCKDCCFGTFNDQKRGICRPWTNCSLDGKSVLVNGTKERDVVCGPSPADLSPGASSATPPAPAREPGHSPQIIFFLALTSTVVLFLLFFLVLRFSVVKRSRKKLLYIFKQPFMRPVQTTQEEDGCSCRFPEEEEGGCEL

[4] = biological target: T5, human CD137 expressed on DO11.10 cells (DO11.10-hCD137) (human, UniProt Q07011 24-255); assay: as above
T5 construct: also called CD137 on human T cells

[5] = biological target: T2, cynomolgus OX40 expressed on DO11.10 …; assay: flow cytometry on DO11.10 cells expressing the target, mean ± SD of three experiments
Experimental: (§1) 50 μl of the antibody dilutions were added to the wells containing cells (final volume 100 μl) and incubated at 4° C. for 1 hour. […] The plates were washed and resuspended in 100 μl of PBS containing DAPI (Biotium, cat no 40043) at 1 μg/ml. The plates were analysed using a Canto II flow cytometer (BD Bioscience) and the data analysed using FlowJo. Dead cells were identified by their higher fluorescence on the UV (405 nm/450/50) channel and excluded from analysis. […] The GMFI data was fit using log (agonist) vs response (three parameters) in Graph Pad Prism Software to generate EC₅₀ values.
(§2) However, in this experiment, instead of using HEK cells to analyse the non-specific binding, non-transduced DO11.10 cells were used. […] The experiment was repeated three times to increase the reliability of the EC₅₀ values calculated.

[6] = biological target: T3, human OX40 expressed on DO11.10 cells …; assay: as above
Experimental: as §1, §2

[7] = biological target: T4, cynomolgus CD137 expressed on DO11.10 …; assay: as above
Experimental: as §1, §2

[8] = biological target: T3, human OX40 expressed on DO11.10 cells …; assay: cell-based or functional assay
[9] = biological target: T5, human CD137 expressed on DO11.10 cells …; assay: cell-based or functional assay
Target sequence in this assay (Q07011 24-255): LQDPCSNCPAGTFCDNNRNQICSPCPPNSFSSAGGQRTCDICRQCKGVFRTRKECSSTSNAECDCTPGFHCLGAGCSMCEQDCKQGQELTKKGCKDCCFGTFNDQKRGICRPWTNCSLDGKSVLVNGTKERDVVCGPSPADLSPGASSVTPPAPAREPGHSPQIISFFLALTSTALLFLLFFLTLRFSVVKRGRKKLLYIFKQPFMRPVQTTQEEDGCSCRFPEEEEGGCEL

B1: FS20-22-49AA/FS30-10-16 (bispecific antibody, human IgG1, kappa, L234A L235A)
heavy: EVQLLESGGGLVQPGGSLRLSCAASGFTFSSYDMSWVRQAPGKGLEWVSDIDPTGSKTDYADSVKGRFTISRDNSKNTLYLQMNSLRAEDTAVYYCARDLLVYGFDYWGQGTLVTVSSASTKGPSVFPLAPSSKSTSGGTAALGCLVKDYFPEPVTVSWNSGALTSGVHTFPAVLQSSGLYSLSSVVTVPSSSLGTQTYICNVNHKPSNTKVDKKVEPKSCDKTHTCPPCPAPEAAGGPSVFLFPPKPKDTLMISRTPEVTCVVVDVSHEDPEVKFNWYVDGVEVHNAKTKPREEQYNSTYRVVSVLTVLHQDWLNGKEYKCKVSNKALPAPIEKTISKAKGQPREPQVYTLPPSRDEYWDQEVSLTCLVKGFYPSDIAVEWESNGDEQFAYKTTPPVLDSDGSFFLYSKLTVDQYRWNPADYFSCSVMHEALHNHYTQKSLSLSPG
light: EIVLTQSPGTLSLSPGERATLSCRASQSVSSSYLAWYQQKPGQAPRLLIYGASSRATGIPDRFSGSGSGTDFTLTISRLEPEDFAVYYCQQSYSYPVTFGQGTKVEIKRTVAAPSVFIFPPSDEQLKSGTASVVCLLNNFYPREAKVQWKVDNALQSGNSQESVTEQDSKDSTYSLSSTLTLSKADYEKHKVYACEVTHQGLSSPVTKSFNRGEC
notes: IgG1 with LALA; also called OX40/CD137 mAb^2; copies: 2 + 2
Kd (cCD137-mFc-Avi): 0.15 nM | EC50 [1]: 0.38 nM | EC50 [2]: 0.157 nM | EC50 [3]: 0.0803 nM | EC50 [4]: 0.129 nM | EC50 [5]: 0.71 nM | EC50 [6]: 0.22 nM | EC50 [7]: 0.12 nM | CD4+ T cell activation assay, hIL-2 release EC50, crosslinked [8]: 0.0833 nM | CD4+ T cell activation assay, hIL-2 release EC50, no crosslinker [8]: 0.113 nM | CD8+ T cell activation assay, hIL-2 release EC50, crosslinked [9]: 1.98 nM | CD8+ T cell activation assay, hIL-2 release EC50, no crosslinker [9]: 0.118 nM
